According to patent US20230296569A1, “Substance quantification in complex mixtures” (ISA Pharmaceuticals B.V., priority 2021, published 2023):

Tests used:
[1] = Peptide content (assay) of lyophilized drug product by UPLC-UV at 220 nm, method according to the invention (USP reserpine reference standard, RRF); format: physicochemical; conditions: method according to the invention (USP RS)
Description: The UPLC method similar to Example 1 was used for the quantification of analytes (i.e. the individual peptides) in mixtures DP-5P (SEQ ID NO: 1-5) and DP-7P (SEQ ID NO: 6-12) and for the determination of content uniformity of mixtures DP-5P and DP-7P (lyophilized product). The method is based on the use of an external reference standard. The relative response factor (ratio of molar extinction coefficients, RRF) against this external reference standard has been established for each peptide. The purity, individual related substances, and the assay of DP-5P and DP-7P were determined by reversed phase rapid HPLC (UPLC) using a mobile phase gradient of ACN/IPA and water and UV detection at λ220 nm.
The following lyophilized peptide compositions were used: DP-5P comprising peptides represented herein by SEQ ID NO: 1-5 admixed at equal net weights of 0.40 mg of each peptide per vial (total amount of protein per vial being 2.00 mg) and 0.56 mg TFA per vial; and DP-7P comprising peptides represented herein by SEQ ID NO: 6-12 admixed at equal net weights of 0.40 mg of each peptide per vial (total amount of protein per vial being 2.80 mg) and 0.96 mg TFA per vial. The following chemicals were used: Acetonitrile, (Biosolve, 01204102); UPLC water, (Type 1, milli-Q); trifluoroacetic acid, (Chem Lab, CLoo.2094.0001), 2-propanol, (UPLC/MS grade, Biosolve, 16264102); Reserpine, (USP, Sigma Aldrich, 1601000). The following equipment was used: QuanRecovery vials, (Waters, 186009186); UPLC pump equipped with a gradient system, autosampler, and UV detection (Waters Acquity or equivalent) and mixer volume 425 μL.
• Mobile phase A: 0.1% (v/v) TFA in water • Mobile phase B: 0.1% (v/v) TFA in 70/30 ACN/IPA • Diluent A: 0.05% (v/v) TFA in water • Diluent B: 0.05% (v/v) TFA in ACN • Blank solution: 80/20 (v/v) diluent A/diluent B • Purge solvent: 80/20 (v/v) water/ACN • Needle wash: 0.05% (v/v) TFA in 80/20 (v/v) water/ACN
5.00 mg Reserpine reference material was accurately weighed and added into a 50 mL volumetric flask. 40.0 mL of blank solution was added, by means of a volumetric pipette. The solution was stirred for 10 min, by means of a magnetic stirrer, until fully dissolved. The solution was diluted to volume with blank solution and mixed well.
Transfer of 2.0 mL, by means of a volumetric pipette, of stock reference solution 1 into a 20 mL volumetric flask. Diluted to volume with blank solution and homogenized.
This sample preparation was setup for lyophilized products DP-5P and DP-7P in an initially sealed container. Before opening and dissolving the drug product, the vials were equilibrated at room temperature for at least 1 hour. The content of the vial was dissolved with 0.8 mL of diluent B, and stirred for 20 min, using a magnetic stirrer. 3.2 mL of diluent A were added. The solution was stirred well for 20 min, using a magnetic stirrer. After dissolving the content of the vial, the sample vial was kept on the lab bench for 30 minutes. The solution was stirred briefly and transferred into an HPLC vial.
• Column: Advance Bio Peptide Map (2.7 μm, 250 x 2.1 mm) • Sample matrix 0.05%v/v TFA in ACN : water (1:4 v/v) • Sample concentration 100 μg/mL net peptide (of each drug substance), duplicate • Injection volume: 10 μL • Column temperature: 40° C. • Sample temperature: 5° C. • Detection: UV (λ=220 nm) • Flow rate: 0.2 mL/min • Run time: 65 min • Purge solvent: 80/20 (v/v) water/ACN • Needle wash: 0.05% (v/v) TFA in 80/20 water/ACN (v/v) (20 s) • Seal wash: 90/10 (v/v) water/MeOH • Elution mode: Gradient elution • Eluent A: 0.1%v/v TFA in water • Eluent B: 0.1%v/v TFA in ACN/IPA (70:30 v/v)
The RRF was determined for all 12 peptides, enabling the quantification of each peptide against a reserpine as shown above. For the determination, the absorbance of each peptide in a solution comprising said peptide at a known concentration, and of a reference standard solution comprising reserpine at a known concentration, were measured at 220 nm. […]

[2] = Peptide content (assay) of lyophilized drug product by UPLC-UV at 220 nm, conventional method (peptide as reference standard); format: physicochemical; conditions: conventional method (peptide as RS)
Protocol: The purity including individual related substances and the assay of a DP-5P (5 peptides, SEQ ID NOs: 1-5) and DP-7P (7 peptides, SEQ ID NOs: 6-12) mixture were determined by reversed phase rapid HPLC (UPLC) using a mobile phase gradient of acetonitrile and water and UV detection at λ=220 nm.
• Column: RP C18, e.g. Waters Acquity, BEH 130 PST (1.7 μm, 150×2.1 mm) • Sample matrix Eluent A : Eluent B=85:15 (v/v). • Sample concentration 100 μg/mL net peptide (of each drug substance mixture), duplicate • Injection volume: 5 μL • Column temperature: 65° C. • Sample temperature: 5° C. • Detection: UV (λ=220 nm) • Flow rate: 0.3 mL/min • Eluent A: 0.05%v/v TFA and 1%v/v Acetonitrile (ACN) in water • Eluent B: 0.05%v/v TFA in ACN
The relative retention times (RRTs) assigned to peptides and related substances both in a DP-5P (SEQ ID NO: 1-5) and DP-7P (SEQ ID NO: 6-12) mixture was calculated with reference to the retention time of the peptide eluting in the middle (FIG. 1 and FIG. 2). That retention time was used as reference as the main peak of this drug substance was detected approx. in the center of the chromatogram. The related substances were determined by area normalization. The individual related substances were reported≥0.10%a/a. The total related substances were calculated as the sum of all individual related substances equal to or greater than a disregard limit of 0.0500%a/a. The purity was calculated as the difference between total related substances and 100%.
The assay of each of the peptides was calculated against a reference standard solution containing either five peptides (DP-5P) or seven peptides (DP-7P) and was expressed in percent and in mg net peptide/vial. For this reference method, the absorption ratio between the reference substance and the analyte is 1, because the reference substance is the analyte itself.
At T=0 months (TOM) the peptide content was measured using the conventional method of Example 2. From T=48 months (T48M) onwards the peptide content was measured with the conventional method of Example 2 and the method according to the invention of Example 3.

Sequence | Assay (mg/vial) ([1]; DP-5P batch, T48M) | Label claim (% target 0.40 mg/vial) ([1]; DP-5P batch, T48M) | Assay (mg/vial) ([1]; DP-5P batch, T54M) | Label claim (% target 0.40 mg/vial) ([1]; DP-5P batch, T54M) | Assay (mg/vial) ([1]; DP-5P batch, T60M) | Label claim (% target 0.40 mg/vial) ([1]; DP-5P batch, T60M) | Assay (mg/vial) ([2]; DP-5P batch, T0M) | Label claim (% target 0.40 mg/vial) ([2]; DP-5P batch, T0M) | Assay (mg/vial) ([2]; DP-5P batch, T48M) | Label claim (% target 0.40 mg/vial) ([2]; DP-5P batch, T48M) | Assay (mg/vial) ([2]; DP-5P batch, T54M) | Label claim (% target 0.40 mg/vial) ([2]; DP-5P batch, T54M) | Assay (mg/vial) ([2]; DP-5P batch, T60M) | Label claim (% target 0.40 mg/vial) ([2]; DP-5P batch, T60M) | Assay (mg/vial) ([1]; DP-7P batch, T48M) | Label claim (% target 0.40 mg/vial) ([1]; DP-7P batch, T48M) | Assay (mg/vial) ([1]; DP-7P batch, T54M) | Label claim (% target 0.40 mg/vial) ([1]; DP-7P batch, T54M) | Assay (mg/vial) ([1]; DP-7P batch, T60M) | Label claim (% target 0.40 mg/vial) ([1]; DP-7P batch, T60M) | other results
RCINCQKPLCPEEKQRHLDKKQRFHNIRGRWT (Peptide 4) | 0.3820 mg/vial | 96% | 0.3966 mg/vial | 99% | 0.3842 mg/vial | 96% | 0.3936 mg/vial | 98% | 0.3937 mg/vial | 98% | 0.3911 mg/vial | 98% | 0.3913 mg/vial | 98% |  |  |  |  |  |  | 
RDLCIVYRDGNPYAVCDKCLKFYSKI (Peptide 11) |  |  |  |  |  |  |  |  |  |  |  |  |  |  | 0.3866 mg/vial | 97% | 0.3815 mg/vial | 95% | 0.3788 mg/vial | 95% | Assay (mg/vial) ([2]; DP-7P batch, T0M): 0.4235 mg/vial; Label claim (% target 0.40 mg/vial) ([2]; DP-7P batch, T0M): 106%; Assay (mg/vial) ([2]; DP-7P batch, T48M): 0.4293 mg/vial; Label claim (% target 0.40 mg/vial) ([2]; DP-7P batch, T48M): 107%; Assay (mg/vial) ([2]; DP-7P batch, T54M): 0.4192 mg/vial; Label claim (% target 0.40 mg/vial) ([2]; DP-7P batch, T54M): 105%; Assay (mg/vial) ([2]; DP-7P batch, T60M): 0.4209 mg/vial; Label claim (% target 0.40 mg/vial) ([2]; DP-7P batch, T60M): 105%
TLRLCVQSTHVDIRTLEDLLMGTLGIVCPICSQKP (Peptide 5) | 0.4028 mg/vial | 101% | 0.4021 mg/vial | 101% | 0.3968 mg/vial | 99% | 0.3976 mg/vial | 99% | 0.4107 mg/vial | 103% | 0.3948 mg/vial | 99% | 0.4011 mg/vial | 100% |  |  |  |  |  |  | 
YGTTLEQQYNKPLCDLLIRCINCQKPLCPEEK (Peptide 12) |  |  |  |  |  |  |  |  |  |  |  |  |  |  | 0.4132 mg/vial | 103% | 0.4034 mg/vial | 101% | 0.4010 mg/vial | 100% | Assay (mg/vial) ([2]; DP-7P batch, T0M): 0.4261 mg/vial; Label claim (% target 0.40 mg/vial) ([2]; DP-7P batch, T0M): 107%; Assay (mg/vial) ([2]; DP-7P batch, T48M): 0.4323 mg/vial; Label claim (% target 0.40 mg/vial) ([2]; DP-7P batch, T48M): 108%; Assay (mg/vial) ([2]; DP-7P batch, T54M): 0.4215 mg/vial; Label claim (% target 0.40 mg/vial) ([2]; DP-7P batch, T54M): 105%; Assay (mg/vial) ([2]; DP-7P batch, T60M): 0.4219 mg/vial; Label claim (% target 0.40 mg/vial) ([2]; DP-7P batch, T60M): 105%
